These results are taken from WO2007039645A1.

The test has as its target VSG on Trypanosoma brucei brucei AnTat 1.1 parasites (Trypanosoma brucei brucei AnTat 1.1). The test is described as follows: cell-based or functional assay. The settings on record: scale: % of the parasites lysed at 10 μg/ml.

Chain of VSG on Trypanosoma brucei brucei AnTat 1.1 parasites (Trypanosoma brucei brucei AnTat 1.1) (P06015 30-480): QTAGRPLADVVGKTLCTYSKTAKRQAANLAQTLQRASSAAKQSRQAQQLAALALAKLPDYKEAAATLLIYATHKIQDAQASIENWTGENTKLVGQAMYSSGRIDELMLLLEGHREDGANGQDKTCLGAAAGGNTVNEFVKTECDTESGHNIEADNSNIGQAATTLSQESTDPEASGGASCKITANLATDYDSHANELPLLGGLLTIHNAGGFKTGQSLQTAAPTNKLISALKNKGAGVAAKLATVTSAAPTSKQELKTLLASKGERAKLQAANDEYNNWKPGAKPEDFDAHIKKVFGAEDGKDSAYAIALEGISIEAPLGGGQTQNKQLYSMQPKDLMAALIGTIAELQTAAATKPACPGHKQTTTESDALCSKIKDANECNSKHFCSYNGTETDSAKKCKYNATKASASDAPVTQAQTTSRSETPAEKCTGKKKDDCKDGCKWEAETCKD

“NbAn33-Tr-apoL-I (from UniProt O14791 28-342)” yielded a trypanolytic activity of 100.
